PMC10299496, “Effect of Chemical Chaperones on the Stability of Proteins during Heat– or Freeze–Thaw Stress” (International Journal of Molecular Sciences, 2023)
Values joined by “and” are separate entries in the source; they are usually repeats but may differ in a detail not shown here. Identical values can stand only once.

Key:
[1] = target: the molecule itself; experiment: AUC; sedimentation velocity, c(M) distributions; GDH 0.2 mg/mL pre-heated 10 min at 50 °C with or without HPCD, Sorb, Tre or Bet, then cooled; run at 25 °C, 48,000 rpm, 0.1 M Na-phosphate pH 7.6, 0.01 M NaCl
[2] = target: the molecule itself; experiment: AUC; sedimentation velocity, c(M) distributions; Phb 0.35 mg/mL pre-heated 40 min at 48 °C with or without HPCD, Tre or Bet, cooled 2 min in ice water; run at 25 °C, 48,000 rpm, 0.03 M HEPES pH 6.8, 0.15 M NaCl

Protein | stoichiometry N [1] | stoichiometry N [2]
Glutamate dehydrogenase from bovine liver (enzyme, glutamate dehydrogenase, bovine liver; homohexamer of six identical subunits of 56-57 kDa; also called GDH; GDHfr (frozen-thawed GDH)) not shown | 6 and 2 | –
Glycogen phosphorylase b from rabbit skeletal muscle (enzyme, UniProt P00489 1-843, looked up, glycogen phosphorylase b (muscle form), rabbit skeletal muscle; dimer of two identical subunits of 97.4 kDa; also called Phb; Phbfr (frozen-thawed Phb)) MSRPLSDQEKRKQISVRGLAGVENVTELKKNFNRHLHFTLVKDRNVATPRDYYFALAHTVRDHLVGRWIRTQQHYYEKDPKRIYYLSLEFYMGRTLQNTMVNLALENACDEATYQLGLDMEELEEIEEDAGLGNGGLGRLAACFLDSMATLGLAAYGYGIRYEFGIFNQKICGGWQMEEADDWLRYGNPWEKARPEFTLPVHFYGRVEHTSQGAKWVDTQVVLAMPYDTPVPGYRNNVVNTMRLWSAKAPNDFNLKDFNVGGYIQAVLDRNLAENISRVLYPNDNFFEGKELRLKQEYFVVAATLQDIIRRFKSSKFGCRDPVRTNFDAFPDKVAIQLNDTHPSLAIPELMRVLVDLERLDWDKAWEVTVKTCAYTNHTVLPEALERWPVHLLETLLPRHLQIIYEINQRFLNRVAAAFPGDVDRLRRMSLVEEGAVKRINMAHLCIAGSHAVNGVARIHSEILKKTIFKDFYELEPHKFQNKTNGITPRRWLVLCNPGLAEIIAERIGEEYISDLDQLRKLLSYVDDEAFIRDVAKVKQENKLKFAAYLEREYKVHINPNSLFDVQVKRIHEYKRQLLNCLHVITLYNRIKKEPNKFVVPRTVMIGGKAAPGYHMAKMIIKLITAIGDVVNHDPVVGDRLRVIFLENYRVSLAEKVIPAADLSEQISTAGTEASGTGNMKFMLNGALTIGTMDGANVEMAEEAGEENFFIFGMRVEDVDRLDQRGYNAQEYYDRIPELRQIIEQLSSGFFSPKQPDLFKDIVNMLMHHDRFKVFADYEEYVKCQERVSALYKNPREWTRMVIRNIATSGKFSSDRTIAQYAREIWGVEPSRQRLPAPDEKIP | – | 2 and 4
